Test results taken from US20060110789.

Legend:
[1] = target: T1, (5)M3+TE (module 3 of DEBS with the N-terminal linker of module 5, fused to thioesterase), Q03132
T1 chain: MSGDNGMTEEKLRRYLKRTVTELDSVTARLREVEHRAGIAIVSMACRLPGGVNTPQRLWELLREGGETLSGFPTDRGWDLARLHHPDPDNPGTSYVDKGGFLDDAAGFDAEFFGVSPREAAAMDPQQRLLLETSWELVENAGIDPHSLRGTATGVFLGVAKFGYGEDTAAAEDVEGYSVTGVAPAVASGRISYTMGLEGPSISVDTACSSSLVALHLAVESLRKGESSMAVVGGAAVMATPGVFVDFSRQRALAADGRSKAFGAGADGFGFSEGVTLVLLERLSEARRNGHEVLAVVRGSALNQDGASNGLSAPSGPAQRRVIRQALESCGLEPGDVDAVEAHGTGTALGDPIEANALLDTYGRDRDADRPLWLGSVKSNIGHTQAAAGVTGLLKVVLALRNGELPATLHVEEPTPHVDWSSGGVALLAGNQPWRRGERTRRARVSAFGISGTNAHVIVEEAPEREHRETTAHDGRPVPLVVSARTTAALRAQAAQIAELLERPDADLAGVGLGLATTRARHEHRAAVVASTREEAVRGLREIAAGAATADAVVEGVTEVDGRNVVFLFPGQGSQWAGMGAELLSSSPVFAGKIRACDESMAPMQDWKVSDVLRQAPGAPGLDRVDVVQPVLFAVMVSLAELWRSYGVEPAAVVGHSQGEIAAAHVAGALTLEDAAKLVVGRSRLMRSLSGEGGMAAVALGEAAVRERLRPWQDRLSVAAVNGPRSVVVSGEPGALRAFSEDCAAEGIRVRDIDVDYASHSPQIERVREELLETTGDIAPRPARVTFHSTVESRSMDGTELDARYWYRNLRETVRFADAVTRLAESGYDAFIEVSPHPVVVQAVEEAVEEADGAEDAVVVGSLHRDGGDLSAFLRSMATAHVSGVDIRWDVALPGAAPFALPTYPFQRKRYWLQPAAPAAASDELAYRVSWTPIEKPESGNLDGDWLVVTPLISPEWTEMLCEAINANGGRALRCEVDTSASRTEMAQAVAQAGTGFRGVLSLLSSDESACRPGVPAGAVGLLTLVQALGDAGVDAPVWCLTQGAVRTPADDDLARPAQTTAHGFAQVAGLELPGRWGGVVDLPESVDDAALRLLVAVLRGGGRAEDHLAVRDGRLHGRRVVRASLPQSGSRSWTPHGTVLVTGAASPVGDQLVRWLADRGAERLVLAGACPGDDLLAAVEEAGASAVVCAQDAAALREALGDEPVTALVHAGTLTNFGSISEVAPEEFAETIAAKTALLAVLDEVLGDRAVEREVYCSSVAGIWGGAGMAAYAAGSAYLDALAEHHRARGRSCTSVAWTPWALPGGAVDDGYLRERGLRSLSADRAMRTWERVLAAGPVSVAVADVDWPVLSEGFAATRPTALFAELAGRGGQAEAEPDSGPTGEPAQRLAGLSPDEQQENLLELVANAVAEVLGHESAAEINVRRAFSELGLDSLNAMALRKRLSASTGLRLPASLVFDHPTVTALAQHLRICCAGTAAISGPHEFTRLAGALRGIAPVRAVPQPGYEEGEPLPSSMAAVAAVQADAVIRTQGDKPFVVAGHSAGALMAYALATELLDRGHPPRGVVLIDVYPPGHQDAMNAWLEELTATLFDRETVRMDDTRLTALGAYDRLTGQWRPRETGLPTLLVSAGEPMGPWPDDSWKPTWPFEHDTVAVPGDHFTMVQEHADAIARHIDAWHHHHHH

[2] = target: T2, M3+TE (module 3 of DEBS with its own N-terminal linker, fused to thioesterase), Q03132
T2 chain: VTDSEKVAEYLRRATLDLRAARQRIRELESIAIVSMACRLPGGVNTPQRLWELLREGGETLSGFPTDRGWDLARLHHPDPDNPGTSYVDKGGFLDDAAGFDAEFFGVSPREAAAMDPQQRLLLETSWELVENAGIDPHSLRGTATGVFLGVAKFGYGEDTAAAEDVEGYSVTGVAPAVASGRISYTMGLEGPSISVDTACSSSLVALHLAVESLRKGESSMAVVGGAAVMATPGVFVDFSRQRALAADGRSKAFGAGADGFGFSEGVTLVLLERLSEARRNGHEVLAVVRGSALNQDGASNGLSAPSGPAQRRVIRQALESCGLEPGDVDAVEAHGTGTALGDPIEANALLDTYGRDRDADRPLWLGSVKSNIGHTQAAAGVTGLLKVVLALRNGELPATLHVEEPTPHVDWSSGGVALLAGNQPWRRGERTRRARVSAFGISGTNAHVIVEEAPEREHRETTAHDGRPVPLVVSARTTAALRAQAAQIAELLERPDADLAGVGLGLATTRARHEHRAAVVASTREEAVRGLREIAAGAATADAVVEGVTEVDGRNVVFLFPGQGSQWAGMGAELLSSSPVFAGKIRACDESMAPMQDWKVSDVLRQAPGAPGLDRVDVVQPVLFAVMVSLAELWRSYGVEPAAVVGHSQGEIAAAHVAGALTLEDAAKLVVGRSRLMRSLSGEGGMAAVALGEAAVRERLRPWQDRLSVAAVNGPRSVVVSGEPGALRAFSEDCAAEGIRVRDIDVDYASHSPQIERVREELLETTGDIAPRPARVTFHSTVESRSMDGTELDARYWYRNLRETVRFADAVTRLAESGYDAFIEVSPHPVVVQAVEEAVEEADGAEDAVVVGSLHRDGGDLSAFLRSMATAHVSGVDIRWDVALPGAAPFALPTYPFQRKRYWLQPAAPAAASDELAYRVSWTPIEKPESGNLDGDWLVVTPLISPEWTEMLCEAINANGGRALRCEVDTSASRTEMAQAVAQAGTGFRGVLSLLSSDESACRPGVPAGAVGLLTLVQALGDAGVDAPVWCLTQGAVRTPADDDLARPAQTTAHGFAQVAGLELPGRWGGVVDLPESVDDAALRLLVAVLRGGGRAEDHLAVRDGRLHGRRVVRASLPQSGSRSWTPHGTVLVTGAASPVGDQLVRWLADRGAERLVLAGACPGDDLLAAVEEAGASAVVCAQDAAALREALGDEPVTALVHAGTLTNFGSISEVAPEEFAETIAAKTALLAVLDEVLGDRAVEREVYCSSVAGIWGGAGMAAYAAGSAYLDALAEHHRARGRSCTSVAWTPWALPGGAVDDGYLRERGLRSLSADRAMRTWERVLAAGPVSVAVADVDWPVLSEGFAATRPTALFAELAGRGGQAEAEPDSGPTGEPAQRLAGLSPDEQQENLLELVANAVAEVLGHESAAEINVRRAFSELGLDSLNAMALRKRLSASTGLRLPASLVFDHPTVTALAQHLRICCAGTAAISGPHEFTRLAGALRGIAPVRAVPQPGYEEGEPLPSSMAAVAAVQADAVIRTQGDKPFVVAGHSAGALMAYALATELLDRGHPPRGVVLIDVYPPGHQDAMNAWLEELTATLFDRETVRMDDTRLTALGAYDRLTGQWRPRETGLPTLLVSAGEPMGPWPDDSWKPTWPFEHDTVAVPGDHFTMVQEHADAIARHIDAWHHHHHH

B1: M2 (module 2 of DEBS with its natural C-terminal linker) (protein)
chain: MSGDNGMTEEKLRRYLKRTVTELDSVTARLREVEHRAGIAIVGMACRLPGEVDSPERLWELITSGRDSAAEVPDDRGWVPDELMASDAAGTRAHGNFMAGAGDFDAAFFGISPREALAMDPQQRQALETTWEALESAGIPPETLRGSDTGVFVGMSHQGYATGRPRPEDGVDGYLLTGNTASVASGRIAYVLGLEGPALTVDTACSSSLVALHTACGSLRDGDCGLAVAGGVSVMAGPEVFTEFSRQGALSPDGRCKPFSDEADGFGLGEGSAFVVLQRLSDARREGRRVLGVVAGSAVNQDGASNGLSAPSGVAQQRVIRRAWARAGITGADVAVVEAHGTGTRLGDPVEASALLATYGKSRGSSGPVLLGSVKSNIGHAQAAAGVAGVIKVLLGLERGVVPPMLCRGERSGLIDWSSGEIELADGVREWSPAADGVRRAGVSAFGVSGTNAHVIIAEPPEPEPVPQPRRMLPATGVVPVVLSARTGAALRAQAGRLADHLAAHPGIAPADVSWTMARARQHFEERAAVLAADTAEAVHRLRAVADGAVVPGVVTGSASDGGSVFVFPGQGAQWEGMARELLPVPVFAESIAECDAVLSEVAGFSVSEVLEPRPDAPSLERVDVVQPVLFAVMVSLARLWRACGAVPSAVIGHSQGEIAAAVVAGALSLEDGMRVVARRSRAVRAVAGRGSMLSVRGGRSDVEKLLADDSWTGRLEVAAVNGPDAVVVAGDAQAAREFLEYCEGVGIRARAIPVDYASHTAHVEPVRDELVQALAGITPRRAEVPFFSTLTGDFLDGTELDAGYWYRNLRHPVEFHSAVQALTDQGYATFIEVSPHPVLASSVQETLDDAESDAAVLGTLERDAGDADRFLTALADAHTRGVAVDWEAVLGRAGLVDLPGYPFQGKRFWLLPDRTTPRDELDGWFYRVDWTEVPRSEPAALRGRWLVVVPEGHEEDGWTVEVRSALAEAGAEPEVTRGVGGLVGDCAGVVSLLALEGDGAVQTLVLVRELDAEGIDAPLWTVTFGAVDAGSPVARPDQAKLWGLGQVASLERGPRWTGLVDLPHMPDPELRGRLTAVLAGSEDQVAVRADAVRARRLSPAHVTATSEYAVPGGTILVTGGTAGLGAEVARWLAGRGAEHLALVSRRGPDTEGVGDLTAELTRLGARVSVHACDVSSREPVRELVHGLIEQGDVVRGVVHAAGLPQQVAINDMDEAAFDEVVAAKAGGAVHLDELCSDAELFLLFSSGAGVWGSARQGAYAAGNAFLDAFARHRRGRGLPATSVAWGLWAAGGMTGDEEAVSFLRERGVRAMPVPRALAALDRVLASGETAVVVTDVDWPAFAESYTAARPRPLLDRIVTTAPSERAGEPETESLRDRLAGLPRAERTAELVRLVRTSTATVLGHDDPKAVRATTPFKELGFDSLAAVRLRNLLNAATGLRLPSTLVFDHPNASAVAGFLDGTEVRGEAPSALAGLDALEGALPEVPATEREELVQRLERMLAALRPVAQAADASGTGANPSGDDLGEAGVDELLEALGRELDGD
In the case of B1, the “highest rate constant of tetraketide lactone 2 formation (mismatched linkers)” value [1] is reported as “in the range of 0.02-0.03 min^-1” and the “maximum rate constant (kcat) of tetraketide lactone 2 formation” value [2] is reported as 0.0045 ± 0.00017 s⁻¹.
